This is an account of results in patent publication US20250163183A1 (COAGULANT THERAPEUTICS, published 2025).

Where two headings read alike, the source gives them in different places.

Assay [1] concerns the target T1, human APC-PPACK (active site-blocked APC) (human, UniProt P04070 43-461, active site bound by the tripeptide inhibitor Phe-Pro-Arg-chloromethylketone (PPACK)).
T1 construct: Bought (Haematologic Technologies)
In words: ELISA.

Assay [2] concerns the target T2, human protein C (PC) zymogen (human, UniProt P04070 43-197; P04070 200-461).
T2 construct: Bought
In words: ELISA screen, PC-coated wells, OD450, n=2 [Continued].

Assay [3] deals with T2, human protein C (PC) zymogen. The assay is described as above. This is another data set of the same source.

T1 sequence (P04070 other isoform, or with tags, fused parts or gaps): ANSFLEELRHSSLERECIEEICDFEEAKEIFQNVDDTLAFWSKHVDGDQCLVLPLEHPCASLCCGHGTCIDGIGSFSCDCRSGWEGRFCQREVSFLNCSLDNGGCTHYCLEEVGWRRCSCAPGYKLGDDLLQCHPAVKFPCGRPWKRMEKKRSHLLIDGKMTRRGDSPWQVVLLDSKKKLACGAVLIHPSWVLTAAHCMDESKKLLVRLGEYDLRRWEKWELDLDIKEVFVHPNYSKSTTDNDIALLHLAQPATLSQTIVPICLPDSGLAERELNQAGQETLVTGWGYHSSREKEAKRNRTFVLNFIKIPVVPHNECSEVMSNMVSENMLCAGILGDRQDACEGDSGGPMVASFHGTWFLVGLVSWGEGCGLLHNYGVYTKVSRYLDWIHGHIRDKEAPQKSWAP
T2 sequence (P04070 43-197, chain 1 of 2): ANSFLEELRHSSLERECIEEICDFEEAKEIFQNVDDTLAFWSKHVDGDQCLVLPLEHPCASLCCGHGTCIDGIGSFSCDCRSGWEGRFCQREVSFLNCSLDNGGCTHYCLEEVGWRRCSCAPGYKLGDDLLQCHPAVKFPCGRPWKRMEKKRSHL
T2 sequence (P04070 200-461, chain 2 of 2): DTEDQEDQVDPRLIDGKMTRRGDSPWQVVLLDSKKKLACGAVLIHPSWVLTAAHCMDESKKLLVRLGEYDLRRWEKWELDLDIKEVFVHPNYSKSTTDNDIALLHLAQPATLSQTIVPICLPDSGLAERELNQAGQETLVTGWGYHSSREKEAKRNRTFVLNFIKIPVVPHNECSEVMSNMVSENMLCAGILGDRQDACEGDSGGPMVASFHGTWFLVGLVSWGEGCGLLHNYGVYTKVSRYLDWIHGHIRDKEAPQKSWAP

B1: SR16983-R3P2A08 (VHH)
VHH: QLQLVESGGGLVQPGGSLRLSCAASGFTFSTKWMYWVRQGPGKGLERVAAIDASGGSTYYADSVKGRFTISRDNSENTVYLQMNSLESADTAVYYCARSEGGLFRGRGTQVTVSA
Turning to B1, the binding result in assay [1] is reported as “binds”; in assay [2], “no binding”.

B2: SR16983-R2-P4-E11 (VHH)
VHH: QLQLVESGGGLVQAGGSLRLSCAASGTTFSFVYMGWYRQAPGNQRDLVARISRDGSTNYLDSVKGRFTISGDNAKNTVYLQMNSLKPEDTARYYCFYNGHLNKWGRGTQVTVSS
B2: the binding result in assay [1] is “binds”; in assay [2] it was “no binding”.

B3: SR16983-R3-P4-E11 (VHH)
VHH: QLQLVEFGGGLVQAGGSLRLSCAASGSTFSFNYMGWYRQAPGNQRDLVARISSGGITNYADSVKGRFTISGDNAKNTVYLQMNSLKPEDTARYYCFYNGYLNKWGQGTQVTVSS
Turning to B3, the figures for the binding result in assay [1] and in assay [2] were “binds” and “no binding”, respectively.

B4: SR16983-R3P2D01 (VHH)
VHH: QLQLVESGGGLVQAGGSLRLSCAASGTTSSFVYMGWYRQAPGNQRDLVARISSDGSTNYADSVKGRFTISGDNAKNTVYLQMNSLKPEDTARYYCFYNGHVNKWGQGTQVTVSS
Consider B4, for which the figures for the binding result in assay [1] and in assay [2] were “binds” and “no binding”, respectively.

B5: SR16983-R3-P2-B05 (VHH)
VHH: QLQLVESGGGLVQAGGSLRLSCAASGTTSSLNLMGWYRQAPGKKRESVAHMTSDGRTDYVDSVKGRFTISRDNSKNTVYLQMNNLKPEDTAVYICYANPFLGSWSNYWGQGTQVTVSS
notes: The cell prints 55 (a CDR1 entry); to be checked
With B5, the binding result in assay [2] is given as “no binding”.

B6: SR16983-R4-P1-A12 (VHH)
VHH: QLQLVESGGGLVQAGGSLRLSCAASGTTSSLNLMGWYRQAPGKKRESVAHMTSDGDTDYVDSVKGRFTISRDNSKNTVYLQMNNVKPEDTAVYYCYANPFLGSWSNYWGQGTQVTVSS
In the case of B6, the results for the binding result in assay [1] and in assay [3] were “binds” and “no binding”, respectively.

B7: SR16983-R2-P4-H08 (VHH)
VHH: QLQLVESGGGLMQAGGSLRLSCAASGTTSSLNLMGWYRQAPGKKRESVAHMTSDGRTDYTDSVKGRFTISRDNSKNTVYLQMNNLKPEDTAVYYCYANPFLGSWSNYWGQGTQVTVSS
As for B7, the binding result in assay [1] is on record as “binds”; in assay [3] it was “no binding”.

B8: SR16983-R2-P4-F01 (VHH)
VHH: QLQLVESGGGLVQAGGSLRLSCAASGRTFVGSYVMGWFRQAPGKAREFVAASSRSTGNTVYLDAVKGRFTVSRDDAKNTLYLQMSSLKPEDTAVYYCATRASINYNYANWPYWGQGTQVTVSS
As for B8, the values for the binding result in assay [1] and in assay [2] were “binds” and “no binding”, respectively.

B9: SR16983-R2-P4-F09 (VHH)
VHH: QVQLVESGGGLVQAGGSLRLSCAASGFTFDDYAIGWFRQAPGKEREGIACRSTDGSTYYADSVEGRFTISSDNAKRTVYLQMNSLKPGDTAVYYCAADLMGVHRRCSGYLNLEYGMDYWAKGTLVTVSS
As to B9, the values for the binding result in assay [1] and in assay [3] were “binds” and “no binding”, respectively.

B10: SR16983-R3P2D09 (VHH)
VHH: QVQLVESGGGLVQAGGSLRLSCAASGRTVGSYAMGWFRQAPGKEREFLAAFSRSTGNTVYADSVKGRFTISRDDAKNTLYLQMNSLKPEDTAVYYCAARASINYNYANWPYWGQGTQVTVSS
Turning to B10, the figures for the binding result in assay [1] and in assay [3] were “binds” and “no binding”, respectively.

B11: SR16983-R3-P5-G12 (VHH)
VHH: QLQLVESGGGLVQAGGSLRLSCVASGRTVGSYAVAWFRQAPGKERELLAASSRSTGNTVYADSVKGRFTIARDDAKNTLYLQMNSLKPEDTAVYYCAARASINYNYANWPYWGQGTQVTVSS
As to B11, the binding result in assay [2] is “no binding”.

B12: SR16983-R3-P3-G03 (VHH)
VHH: QVQLVESGGGLVQAGGSLRLSCAASGRTVGSYVMGWFRQAPGKERELLAAFSRSTGNTVYADSVKGRFTISRDDAKNTLYLQMNSLKPEDTAVYYCAARASINYNYANWPYWGQGTQVTVSS
As to B12, the binding result in assay [1] is given as “binds”; in assay [3], “no binding”.

B13: SR16983-R2-P3-E06 (VHH)
VHH: QLQLVESGGGLVQAGGSLRLSCVASGRTVGSYAVAWFRQAPGKERELLAASSRSTGNTVYADSVKGRFTIARDDAKNTLYLQMNSLKPEDTAVYYCAARASINYNYANWPYWGQGTQVTVSS
Take B13: the binding result in assay [2] is “no binding”.

B14: SR16983-R3-P3-F04 (VHH)
VHH: QLQLVESGGGLVQAGGSLRLSCAASGRTVGSYAMGWFRQAPGKEREFLAASSRSTGNTVYADSVKGRFTISRDDAKNTLYLQMNSLKPEDTAVYYCAARASINYNYANWPYWGQGTQVTVSS
As for B14, the values for the binding result in assay [1] and in assay [3] were “binds” and “no binding”, respectively.

B15: SR16983-R2-P4-G08 (VHH)
VHH: EVQLVESGGGLVQAGGSLRLSCAASGLTSSTYAMAWFRQAPGKEREFVSVIDWRGSTTYTNSVKGRFTISRDNGKNTVYLQMNSLQPEDTALYYCAARASPGYVGSLYPYWGRGTQVTVSS
Regarding B15, the figures for the binding result in assay [1] and in assay [2] were “binds” and “no binding”, respectively.

B16: SR16983-R2-P2-E10 (VHH)
VHH: QLQLVESGGGLVQPGGSLRLSCVLSGSTFGRNVITWYRQPPGKQREFIAMITTSGSTRYADSVKGRFTMSRDTAKNTAFLQMSNLKLEDTAVYYCWTAIAGQGEYWGQGTQVTVSS
In the case of B16, the figures for the binding result in assay [1] and in assay [3] were “binds” and “no binding”, respectively.

B17: SR16983-R4-P1-C07 (VHH)
VHH: EVQLVESGGGVVQAGGSLRLSCVLSGNTFGDNVITWYRQPPGKQREFIAMITKSGSTRYADSVKGRFTMSRDTAKNTAFLQMSSLKVEDTAVYYCWTAIAGQGEYWGQGTQVTVSS
B17: the figures for the binding result in assay [1] and in assay [3] were “binds” and “no binding”, respectively.

B18: SR16983-R2-P2-A08 (VHH)
VHH: QVQLVESGGGVVQAGGSLRLSCAASGLTSSTYVMAWFRQAPGKEREFVSVIDSRGDTTYAKSVKGRFSISRDNGKNAVYLQMNSLQPEDTALYYCAARASASYVARMYAYWGRGTQVTVSS
Regarding B18, the results for the binding result in assay [1] and in assay [3] were “binds” and “no binding”, respectively.

B19: SR16983-R3P2A07 (VHH)
VHH: QVQLVESGGRLVQAGGSLRLSCAASGRTSSNYAMGWFRQAPGKERRFVAGISRDGADTSYADSVKGRFTILRDRSKNTADLQMNSLKPEDTAIYYCAAARGIYGEISRYTGDYESWGQGTQVTVSS
Regarding B19, the values for the binding result in assay [1] and in assay [3] were “binds” and “no binding”, respectively.

B20: SR16983-R3P2F4 (VHH)
VHH: QLQLVESGGGLVQAGGSLRLSCAASGRIFGTYVMGWFRQAPGKEREFVAAVSRSTGSTYADSVKGRFTISRDDAKNMLYLQMNNLRPEDTAIYYCATRASINYNYANWPYWGQGTQVTVSS
As for B20, the results for the binding result in assay [1] and in assay [3] were “binds” and “no binding”, respectively.
